Target: M-L2-IL12 (masked mouse IL-12 whose linker contains 3 repeats of VPLSLYSG), Q60837
Sequence (Q60837 whole entry, looked up): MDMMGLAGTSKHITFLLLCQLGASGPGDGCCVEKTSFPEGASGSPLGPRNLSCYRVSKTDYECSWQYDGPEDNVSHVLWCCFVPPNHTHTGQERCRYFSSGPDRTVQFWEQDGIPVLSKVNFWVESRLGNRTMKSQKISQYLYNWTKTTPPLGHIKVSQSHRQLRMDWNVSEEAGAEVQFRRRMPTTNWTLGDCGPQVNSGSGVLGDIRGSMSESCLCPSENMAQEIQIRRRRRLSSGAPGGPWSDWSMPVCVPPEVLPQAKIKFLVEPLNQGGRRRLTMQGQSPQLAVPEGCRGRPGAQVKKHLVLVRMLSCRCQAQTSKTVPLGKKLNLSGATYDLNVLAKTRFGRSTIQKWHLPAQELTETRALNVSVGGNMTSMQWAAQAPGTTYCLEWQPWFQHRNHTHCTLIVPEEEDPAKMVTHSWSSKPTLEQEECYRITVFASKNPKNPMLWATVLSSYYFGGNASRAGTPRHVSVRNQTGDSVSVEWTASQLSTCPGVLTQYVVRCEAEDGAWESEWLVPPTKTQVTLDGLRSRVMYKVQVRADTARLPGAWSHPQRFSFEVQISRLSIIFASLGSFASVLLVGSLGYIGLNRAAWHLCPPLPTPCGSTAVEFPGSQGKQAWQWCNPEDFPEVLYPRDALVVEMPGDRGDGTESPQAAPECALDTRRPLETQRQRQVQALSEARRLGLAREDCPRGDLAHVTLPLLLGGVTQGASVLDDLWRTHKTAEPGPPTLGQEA

B1: recombinant mouse matrix metalloproteinase-9 (protein)
chain: FQTFKGLKWDHHNITYWIQNYSEDLPRDMIDDAFARAFAVWGEVAPLTFTRVYGPEADIVIQFGVAEHGDGYPFDGKDGLLAHAFPPGAGVQGDAHFDDDELWSLGKGVVIPTYYGNSNGAPCHFPFTFEGRSYSACTTDGRNDGTPWCSTTADYDKDGKFGFCPSERLYTEHGNGEGKPCVFPFIFEGRSYSACTTKGRSDGYRWCATTANYDQDKLYGFCPTRVDATVVGGNSAGELCVFPFVFLGKQYSSCTSDGRRDGRLWCATTSNFDTDKKWGFCPDQGYSLFLVAAHEFGHALGLDHSSVPEALMYPLYSYLEGFPLNKDDIDGIQYLYGRGSKPDPRPPATTTTEPQPTAPPTMCPTIPPTAYPTVGPTVGPTGAPSPGPTSSPSPGPTGAPSPGPTAPPTAGSSEASTESLSPADNPCNVDVFDAIAEIQGALHFFKDGWYWKFLNHRGSPLQGPFLTARTWPALPATLDSAFEDPQTKRVFFFSGRQMWVYTGKTVLGPRSLDKLGLGPEVTHVSGLLPRRLGKALLFSKGRVWRFDLKSQKVDPQSVIRVDKEFSGVPWNSHDIFQYQDKAYFCHGKFFWRVSFQNEVNKVDHEVNQVDDVGYVTYDLLQCP
With B1 the “in vitro cleavage, 30 min at 37° C., SDS-PAGE” value was “Decrease of molecular weight from ˜105 kDa to ˜60 kDa indicates proteolytic cleavage of IL12Rβ1-VP-IL12 and IL12Rβ1-LS-IL12”.

From patent US20240228586
